In data set [1] the test system is C. trachomatis D infected cell cultures. The data set is described as follows: Pulse chase studies of candidates for secreted proteins (2D-PAGE). It is filed as cell-based. The procedure:
(§1) To label chlamydial proteins for two hour periods, infected cell cultures were incubated in a medium containing RPMI 1640, […] gentamycin, 40 μg/ml cycloheximide, 100 μCi/ml [35S]-methionine/cysteine (Promix, Amersham Pharmacia Biotech, Uppsala, Sweden) as described previously (Shaw et al., 1999,2000) [18.] [19.]. After labelling the labelling medium was changed to normal growth medium following two washes in normal growth medium and the infected cells were harvested at different points in time after labelling. Similarly, labelled EB proteins were obtained by allowing the Chlamydia to grow until 72 h.p.i. after the two hour labelling periods. The labelled EB were then harvested and purified using two consecutive steps of density gradient ultracentrifugation essentially as described for C. trachomatis in (Schacter and Wyrick, 1994) [22.]and for C. pneumoniae (Knudsen et al. 1999 [17.]). Proteins in the EB preparation and pulse chase preparation were labelled at the same intervals as proteins from the whole cell lysate preparation to facilitate correct 2D-PAGE protein profile comparison.
In order to estimate the time in which the identified candidate proteins could be present inside infected cells, the invention provides a series of pulse chase studies. In the following examples infected cell cultures were [35S]-labelled from 22-24 hours. After the labelling period the medium was changed to normal RPMI growth medium without [35S]-methionine and cells were harvested at different times after labelling.

The subject of data set [2] is host cell proteasome. The data set is described as follows: Pulse chase studies in combination with proteasome inhibitors (2D-PAGE). Type of data set: cell-based, C. trachomatis D infected cells. Also noted: key to Affected by MG115 / Affected by MG132: +: turnover times is prolonged by treatment with different proteasome inhibitors during labelling and chase. The settings on record: for level on chased+MG132 gels compared to controls: labelled 22-24 h.p.i., chased 24-28 h.p.i. with MG132 (10-100 μM; 20 μM in FIG. 6); for turnover time upon addition of proteasome inhibitors: proteasome inhibitors added during the chase period; for Affected by MG115 / Affected by MG132: turnover time of C. trachomatis D protein, inhibitor during labelling and chase. The procedure:
as §1
Cell permeable proteasome inhibitors are added to the infected cell cultures during the labelling and chase period and the turnover time of proteins compared to that observed for labelling/chase without proteasome inhibitors added. Proteins were labelled in the presence or absence of 10-100 μM of the proteasome inhibitor MG-132 from 22-24 h.p.i. The labelling medium was then replaced with growth medium with or without MG132 after two washes in normal growth medium and chased from 24 h.p.i. to 28 h.p.i. Cell lysates were run on 2D-PAGE(IPG) and compared to controls without MG-132. and to gels with proteins harvested immediately after labelling (FIGS. 6A, B and C).
The invention includes the use of several other proteasome inhibitors (e.g. MG115, MG262, PSI and lactocystein), which inhibit different parts of the catalytic activity of the proteasome, which may elucidate other proteins that are degraded in the proteasome (Table IV).

Data set [3] concerns host cell proteasome. The data set is described as follows: Immunoblotting with PAb255 against CT610 of MG132 treated infected cells. It is filed as cell-based, C. trachomatis D infected cells. Particulars: for abundance on 2D-gel immunoblot with PAb255 after MG132 treatment: MG132 for 6 hours prior to harvesting at 30 h.p.i. The procedure:
In order to confirm that the PAbs recognized the correct vaccine candidates and to visualize potential post translational modifications or processing, 2D-PAGE immunoblotting were performed. 500 μg unlabelled and 2×10^6 cpm labelled C. trachomatis D or C. pneumoniae protein from whole cell lysates was separated by 2D-PAGE, and proteins were electroblotted on to PVDF membranes. Immunostaining was carried out using a 1/5001/1000 dilution of the PAbs in a buffer containing 150 mM NaCl (or in high salt, 400 mM), 20 mM Tris, 0.2% w/v gelatin, 0.05% v/v Tween 20 (Bio-Rad) and 2% v/v normal goat serum (Dako, Glostrup Denmark).
The secondary antibody used was alkaline phosphatase-conjugated goat anti-rabbit IgG (Bio-Rad) diluted 1/2000 in antibody buffer. Blots were stained with 5-bromo-4-chloro-3-indolylphosphate toluidium (BCIP)/nitroblue tetrazolium (NBT) (Bio-Rad) until a clear reaction was detected. Immunoblots were computer scanned and subsequently exposed to X-ray films for approximately 8 days. Melanie II Software was used in order to compare immunostained proteins with their [35S]-labelled counterparts.
DT7 was identified as CT610 and was located just above DT9, DT10, DT11 and DT12 (FIG. 6A). IMB with PAb255 against CT610 on 2D-gel blots (FIG. 7C1) of whole cell lysates clearly reacted with two rows of spots, one row representing DT7 and the other row representing DT9, DT10, DT11 and DT12. CT610 is therefore present in different isoforms presumably due to different posttranslational modification and processing.
IMB with PAb255 was performed on ordinary SDS-PAGE PVDF blots with protein from whole cell lysates treated for six hours in the presence or absence of MG132, respectively.

Entries after “also recorded” stand apart in the source; their conditions may differ.

B1: DT8: novel 7.2 kDa C. trachomatis specific protein, SEQ ID NO:1, not annotated in genome (protein, listed as Chlamydia trachomatis)
chain: MQHTIMLSLENDNDKLASMMDRVVAASSSILSASKDSESNRQFTISKAPDKEAPCRVSYVAASALSE
Consider B1, for which, in data set [1], the “turnover time in pulse chase studies” value was “short”. In addition, in data set [1] (labelled 22-24 h.p.i., chased), the “turnover time (time present after synthesis)” value was under 6 h.

B2: DT48: C. trachomatis D protein spot, N-terminal fragment of CT858 (protein)
chain: IHSPVQGESLVCKNALQDLSFLEHLLQVKYAPKTWKEQYLGWDLVQSSVSAQQKLRTQENPSTSFCQQVLADFIGGLNDFHAGVTFFAIESAYLPYTVQKSSDGRFYFVDIMTFSSEIRVGDELLEVDGAPVQDVLATLYGSNHKGTAAEESAALRTLFSRMASLGHKVPSGRTTLKIRRPFGTTREVRVKWRYVPEGVGDLATIAPSIRAPQLQKSM
For B2, the “turnover time in pulse chase studies” value in data set [1] was “long”.

B3: DT9: C. trachomatis D protein spot identified as CT610 (lower row) (protein)
chain: MNFLDQLDLIIQNKHMLEHTFYVKWSKGELTKEQLQAYAKDYYLHIKAFPKYLSAIHSRCDDLEARKLLLDNLMDEENGYPNHIDLWKQFVFALGVTPEELEAHEPSEAAKAKVATFMRWCTGDSLAAGVAALYSYESQIPRIAREKIRGLTEYFGFSNPEDYAYFTEHEEADVRHAREEKALIEMLLKDDADKVLEASQEVTQSLYGFLDSFLDPGTCCSCHQSY
Turning to B3, in the data set on host cell proteasome [2], the “level on chased+MG132 gels compared to controls” value (“level … compared to controls” below) is given as “significantly greater; also recorded: higher; also recorded: significantly increased”, the “turnover time upon addition of proteasome inhibitors” value is on record as “prolonged”, the “Affected by MG115” value is reported as “+” and the “Affected by MG132” value is on record as “+”. Moreover, the “turnover time in pulse chase studies” value in data set [1] is given as “short”. For the same molecule, the “abundance on 2D-gel immunoblot with PAb255 after MG132 treatment” value (from here on “abundance on 2D-gel immunoblot”) in the data set on host cell proteasome [3] is given as “clear relative increase; also recorded: clearly increased”.

B4: DT10: C. trachomatis D protein spot identified as CT610 (lower row) (protein)
chain: MNFLDQLDLIIQNKHMLEHTFYVKWSKGELTKEQLQAYAKDYYLHIKAFPKYLSAIHSRCDDLEARKLLLDNLMDEENGYPNHIDLWKQFVFALGVTPEELEAHEPSEAAKAKVATFMRWCTGDSLAAGVAALYSYESQIPRIAREKIRGLTEYFGFSNPEDYAYFTEHEEADVRHAREEKALIEMLLKDDADKVLEASQEVTQSLYGFLDSFLDPGTCCSCHQSY
B4: in the data set on host cell proteasome [2], the “level … compared to controls” value was “significantly greater; also recorded: higher; also recorded: significantly increased”, the “turnover time upon addition of proteasome inhibitors” value is reported as “prolonged”, the “Affected by MG115” value is on record as “+” and the “Affected by MG132” value is “+”. Also, in data set [1], the “turnover time in pulse chase studies” value is given as “short”. For the same molecule, the “abundance on 2D-gel immunoblot” value in the data set on host cell proteasome [3] is “clear relative increase; also recorded: clearly increased”.

B5: DT7: C. trachomatis D protein spot identified as CT610 (upper row) (protein)
chain: MNFLDQLDLIIQNKHMLEHTFYVKWSKGELTKEQLQAYAKDYYLHIKAFPKYLSAIHSRCDDLEARKLLLDNLMDEENGYPNHIDLWKQFVFALGVTPEELEAHEPSEAAKAKVATFMRWCTGDSLAAGVAALYSYESQIPRIAREKIRGLTEYFGFSNPEDYAYFTEHEEADVRHAREEKALIEMLLKDDADKVLEASQEVTQSLYGFLDSFLDPGTCCSCHQSY
For B5, the “level … compared to controls” value in the data set on host cell proteasome [2] is “not significantly affected”. In addition, the “turnover time in pulse chase studies” value in data set [1] was “short”. For the same molecule, the “level of band on SDS-PAGE immunoblot with PAb255, MG132 treated vs untreated” value in the data set on host cell proteasome [3] (six hours with or without MG132 (50 μM), harvested 30 h.p.i.) is given as “not significantly altered”.

B6: DT11: C. trachomatis D protein spot identified as CT610 (lower row) (protein)
chain: MNFLDQLDLIIQNKHMLEHTFYVKWSKGELTKEQLQAYAKDYYLHIKAFPKYLSAIHSRCDDLEARKLLLDNLMDEENGYPNHIDLWKQFVFALGVTPEELEAHEPSEAAKAKVATFMRWCTGDSLAAGVAALYSYESQIPRIAREKIRGLTEYFGFSNPEDYAYFTEHEEADVRHAREEKALIEMLLKDDADKVLEASQEVTQSLYGFLDSFLDPGTCCSCHQSY
Take B6: in the data set with host cell proteasome [2], the “level … compared to controls” value was “significantly greater; also recorded: higher; also recorded: significantly increased”, the “turnover time upon addition of proteasome inhibitors” value was “prolonged”, the “Affected by MG115” value is “+” and the “Affected by MG132” value was “+”. Moreover, in data set [1], the “turnover time in pulse chase studies” value is reported as “short”. The “abundance on 2D-gel immunoblot” value in the data set with host cell proteasome [3] is “clearly increased”. For the same molecule, the “abundance on 2D-gel immunoblot” value in the data set on host cell proteasome [3] (listed as DT111) is reported as “clear relative increase”.

B7: CT858: C. trachomatis 67 kDa protein, fragments DT4 (C-terminal) and DT48 (N-terminal) (protein)
chain: MKMNRIWLLLLTFSSAIHSPVQGESLVCKNALQDLSFLEHLLQVKYAPKTWKEQYLGWDLVQSSVSAQQKLRTQENPSTSFCQQVLADFIGGLNDFHAGVTFFAIESAYLPYTVQKSSDGRFYFVDIMTFSSEIRVGDELLEVDGAPVQDVLATLYGSNHKGTAAEESAALRTLFSRMASLGHKVPSGRTTLKIRRPFGTTREVRVKWRYVPEGVGDLATIAPSIRAPQLQKSMRSFFPKKDDAFHRSSSLFYSPMVPHFWAELRNHYATSGLKSGYNIGSTDGFLPVIGPVIWESEGLFRAYISSVTDGDGKSHKVGFLRIPTYSWQDMEDFDPSGPPPWEEFAKIIQVFSSNTEALIIDQTNNPGGSVLYLYALLSMLTDRPLELPKHRMILTQDEVVDALDWLTLLENVDTNVESRLALGDNMEGYTVDLQVAEYLKSFGRQVLNCWSKGDIELSTPIPLFGFEKIHPHPRVQYSKPICVLINEQDFSCADFFPVVLKDNDRALIVGTRTAGAGGFVFNVQFPNRTGIKTCSLTGSLAVREHGAFIENIGVEPHIDLPFTANDIRYKGYSEYLDKVKKLVCQLINNDGTIILAEDGSF
Regarding B7, in data set [1], the “turnover time in pulse chase studies” value is listed as “long”.

B8: DT4: C. trachomatis D protein spot, C-terminal fragment of CT858 (protein)
chain: GYNIGSTDGFLPVIGPVIWESEGLFRAYISSVTDGDGKSHKVGFLRIPTYSWQDMEDFDPSGPPPWEEFAKIIQVFSSNTEALIIDQTNNPGGSVLYLYALLSMLTDRPLELPKHRMILTQDEVVDALDWLTLLENVDTNVESRLALGDNMEGYTVDLQVAEYLKSFGRQVLNCWSKGDIELSTPIPLFGFEKIHPHPRVQYSKPICVLINEQDFSCADFFPVVLKDNDRALIVGTRTAGAGGFVFNVQFPNRTGIKTCSLTGSLAVREHGAFIENIGVEPHIDLPFTANDIRYKGYSEYLDKVKKLVCQLINNDGTIILAEDGSF
As for B8, the “turnover time in pulse chase studies” value in data set [1] is recorded as “long”.

Values taken from patent publication US20030199438A1, “Method for identification of proteins from intracellular bacteria” (priority 2001, published 2003).
